{"source": "paper doi:10.1101/519959", "binders": {"B1": {"name": "Hs.con (3 copies of Ino80 motif, 33-mer) (dsDNA)", "DNA 1": "CCCCGTCAGCCCCCCGTCAGCCCCCCGTCAGCC", "DNA 2": "GGCTGACGGGGGGCTGACGGGGGGCTGACGGGG"}}, "target": "T1, DBINO domain of dIno80 (Drosophila melanogaster, UniProt Q9VDY1 228-484)", "T1 sequence": "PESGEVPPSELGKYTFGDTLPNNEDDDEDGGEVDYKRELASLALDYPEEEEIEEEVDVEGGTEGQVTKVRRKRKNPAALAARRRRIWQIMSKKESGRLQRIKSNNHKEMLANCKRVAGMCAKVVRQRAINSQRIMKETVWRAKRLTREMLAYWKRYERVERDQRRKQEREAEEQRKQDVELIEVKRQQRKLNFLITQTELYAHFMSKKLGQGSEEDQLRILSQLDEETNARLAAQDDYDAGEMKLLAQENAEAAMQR", "assay": "fluorescent intercalator displacement", "data": [{"binder": "B1", "values": [{"measurement": "Kd", "result": 10, "unit": "µM"}]}]}
